Biological target: Cryptosporidium parvum pyruvate kinase (Cryptosporidium parvum)
Experiment: SEC; analytical Superdex 200 10/30, partially purified CpPyK, elution compared with catalase (Mr 232 kDa) run separately; fractions checked by SDS-PAGE

- stoichiometry N: 4
Substance: Cryptosporidium parvum pyruvate kinase (enzyme)

Source: article PMC3467265
